Laboratory results published in the supplement of paper PMC11865577.

Columns and labels:
Assay in all cases: pull-down binding Z-score (relative to library population); higher = stronger binding
Settings in all cases: RNA library: Library-2
[1] = tested on: TO-3-N3 (biotin conjugate)
Procedure, shortened: (§1)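 Cy5- or Cy3-end-labelled RNA library (1 μg) was heat-folded in phosphate/NaCl/KCl buffer and incubated 60 min at 25 °C with streptavidin beads carrying 100 pmol biotin-conjugated small molecule. After three washes, bound RNA was eluted in hot SDS and hybridised 20 h at 55.5 °C to a DNA barcode microarray. Binding was scored by subtracting a beads-only control, averaging barcoded replicate probes after dropping highest and lowest, and converting to a Z-score against library mean and standard deviation.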

[2] = tested on: TO-N3 (biotin conjugate)
Procedure, shortened: as §1

[3] = tested on: TO-3-N3-2 (biotin conjugate)
Procedure, shortened: as §1

[4] = tested on: TO-N3-2 (biotin conjugate)
Procedure, shortened: as §1

| Sequence | pull-down binding Z-score [1] | pull-down binding Z-score [2] | pull-down binding Z-score [3] | pull-down binding Z-score [4] |
| --- | --- | --- | --- | --- |
| GGAAUAAGUACGAUACUUACCUG [U1snRNP5ss-5] | -0.215 | 0.464 | 0.089 | 1.56 |
| GGAAUAAGUAUGAUACUUACCUG [U1snRNP5ss-6] | 1.69 | 1.81 | 0.331 | 1.18 |
| GGAAUGGAUCCC [IAV_invivo_NP_5_Motif_9+IAV_invivo_NP_5_Motif_9] | -0.119 | -0.323 | -0.0967 | -0.367 |
| GGAAUUGCAAUGUCGAUAGAUAUCCUGCUAAUUCC [DMSMaPseq_invitro_SARS-CoV-2_Motif_342] | -0.203 | -0.229 | -0.418 | -0.212 |
| GGAAUUGUGUUAAUUGUGAUACAUUCU [SHAPE_invitro_SARS-CoV-2_Motif_150] | -0.83 | -0.949 | -0.388 | -0.855 |
| GGAAUUUGAACC [IAV_invivo_PB2_1_Motif_28+IAV_invivo_PB2_1_Motif_28] | 0.293 | 0.0885 | -0.147 | -0.514 |
| GGACAAUUCACCUAAUUUAGCAUGGCCUCUUAUUGUAACAGCUUUAAGGGCCAAUUCUGCUGUCAAAUUACAGAAUAAUGAGCUUAGUCC | -0.496 | -0.563 | -0.176 | -0.485 |
| GGACCAGGAACUAAUCAGACAAGGAACUGAUUACAAACAUUGGCC [DMSMaPseq_invitro_SARS-CoV-2_Motif_522] | 1.03 | 1.01 | 0.134 | 0.031 |
| GGACCUGAGCGCACCUGUUGUCU [SHAPE_invivo_SARS-CoV-2_Motif_351] | 0.863 | 1.58 | 0.645 | 1.67 |
| GGACUUGAAAGAGCC | -0.384 | -0.45 | -0.442 | -0.676 |
| GGAGAAAAUUCC [IAV_invivo_PA_3_Motif_17+IAV_invivo_PA_3_Motif_17] | -0.517 | -0.797 | -0.333 | -0.726 |
| GGAGAAGAACCC [IAV_invivo_PB2_1_Motif_3+IAV_invivo_PB2_1_Motif_3] | -0.254 | -0.17 | -0.0996 | 0.0437 |
| GGAGACAGGUGGUUUCUCAAUCGAUUUACCACAACUCU [SHAPE_invivo_SARS-CoV-2_Motif_209] | -0.078 | -0.19 | -0.326 | -0.516 |
| GGAGAGUGUGGACACUUAUGAAUGUCUUGACACUCGUU [SHAPE_invitro_SARS-CoV-2_Motif_211] | 0.331 | 0.586 | 0.121 | 0.364 |
| GGAGAGUGUUCAGACAUUCUUU [SHAPE_invitro_SARS-CoV-2_Motif_44] | -0.535 | -0.508 | -0.361 | -0.602 |
| GGAGAUGAGGCGUUGCCUCCUCC [IAV_invivo_PA_3_Motif_24+IAV_invivo_PA_3_Motif_24] | -0.646 | -1.01 | -0.663 | -0.275 |
| GGAGGAGGAGGAGGAGGA [G4_r(GGA)6] | 4.17 | 2.99 | 7.36 | -1.68 |
| GGAGGAGGAGGAGGAGGAGGAGGAGGAGGAGGAGGAGGAGGAGGAGGA [G4_r(GGA)16] | 7.15 | 5.89 | 8.95 | 3.35 |
| GGAGGGCCUUCUACGGAAGGAGUGCC [IAV_invivo_M1_M2_7_Motif_16+IAV_invivo_M1_M2_7_Motif_16] | 0.296 | 0.646 | -0.0132 | 1.57 |
| GGAGGUUGCUAGUCAGGCUAGACAAAUGGUGCAAGCGAUGAGAACCAUUGGAACUCAUCCUAGCUCCAGUGCUGGUCUGAAAAAUGAUCUUC [IAV_invivo_M1_M2_7_Motif_15+IAV_invivo_M1_M2_7_Motif_15] | -0.55 | -0.195 | -0.816 | 0.839 |
| GGAGUAAGUCUGAUACUUACCUG [U1snRNP5ss-1] | -0.0269 | 0.599 | -0.152 | 0.773 |

| Sequence | pull-down binding Z-score [1] | pull-down binding Z-score [2] | pull-down binding Z-score [3] | pull-down binding Z-score [4] |
| --- | --- | --- | --- | --- |
| GGAGUUCAAAUUGCUUCC [IAV_invivo_NP_5_Motif_19+IAV_invivo_NP_5_Motif_19] | -0.502 | -0.561 | -0.404 | -0.604 |
| GGAUCCCGACUGGCGAGAGCCAGGUAACGAAUGGAUCC [MG-aptamer] | -0.00379 | 0.277 | -0.524 | 2.4 |
| GGAUGAGAGAACUCAUCC [IAV_invivo_NP_5_Motif_6+IAV_invivo_NP_5_Motif_6] | -0.302 | -0.724 | -0.323 | -0.939 |
| GGAUGGUCUUCAAUCC [IAV_invivo_PB1_2_Motif_23+IAV_invivo_PB1_2_Motif_23] | -0.481 | -0.47 | -0.137 | -0.515 |
| GGAUGGUUACAGGACUAAGGAACAAUCCGUCC [IAV_invivo_HA_4_Motif_14+IAV_invivo_HA_4_Motif_14] | -0.461 | -0.295 | -0.14 | -0.0521 |
| GGAUGUCAAUCC [IAV_invivo_PB1_2_Motif_2+IAV_invivo_PB1_2_Motif_2] | 0.302 | 0.0736 | -0.17 | -0.856 |
| GGAUUGUACAGAAAGUGUGUUAAAUCC [SHAPE_invivo_SARS-CoV-2_Motif_47] | -0.22 | -0.222 | 0.139 | -0.185 |
| GGAUUUCUGGACAUUUGGACAUAUAAUGCAGAAUUGUUAGUUCUACUGGAAAAUGAAAGGACUCUGGAUUUCC [IAV_invivo_HA_4_Motif_17+IAV_invivo_HA_4_Motif_17] | -0.659 | -0.198 | 0.4 | 0.395 |
| GGCAACUAGCACUCUCCAAGGGUGUUCACUUUGUUUGCAACUUGCUGUUGUUGUUUGUAACAGUUUACUCACACCUUUUGCUCGUUGCU [SHAPE_invitro_SARS-CoV-2_Motif_465] | -0.318 | -0.358 | -0.205 | -0.0997 |
| GGCACAAAUGCAACACUGCAUUACCAUGCGGUUGUGCC [3-way model-1_rpoH] | -1.03 | -1.42 | -0.624 | -1.27 |
| GGCAGACGUGGUCCAGAACAAACCCAAGGAAAUUUUGGGGACCAGGAACUAAUCAGACAAGGAACUGAUUACAAACAUUGGCC | 0.608 | 0.753 | 0.536 | 0.614 |
| GGCAGCGAGCC [IAV_invivo_NP_5_Motif_25+IAV_invivo_NP_5_Motif_25] | -0.756 | -1.01 | -0.633 | -0.713 |
| GGCAGUUUGUAUGUAAAUAAACAUGCAUUCC [SHAPE_invivo_SARS-CoV-2_Motif_362] | 0.0152 | -0.216 | -0.171 | -0.727 |
| GGCAUCAUAUGGGUUGCAACUGAGGGAGCCUUGAAUACACCAAAAGAUCACAUUGGCACCCGCAAUCCUGCUAACAAUGCU [DMSMaPseq_invitro_SARS-CoV-2_Motif_513] | -0.63 | -0.253 | -0.241 | 0.342 |
| GGCAUCUGCGGGCC [IAV_invivo_NP_5_Motif_21+IAV_invivo_NP_5_Motif_21] | -0.637 | -0.759 | -0.641 | -0.239 |
| GGCCAGCAGAGGCC [IAV_invivo_PA_3_Motif_7+IAV_invivo_PA_3_Motif_7] | 0.905 | 0.703 | 0.0485 | -0.109 |
| GGCCAGGUUUCAAGGCC [IAV_invivo_PA_3_Motif_22+IAV_invivo_PA_3_Motif_22] | -0.64 | -0.785 | -0.644 | -0.29 |
| GGCCAUUAGAGGCC [IAV_invivo_PB2_1_Motif_29+IAV_invivo_PB2_1_Motif_29] | 0.0791 | -0.257 | -0.69 | -1.06 |
| GGCCCGAGUGAUGGGCU [IAV_invivo_NA_6_Motif_9+IAV_invivo_NA_6_Motif_9] | -0.127 | -0.27 | -0.29 | 0.201 |
| GGCCGCAAAUUGCACAAUUUGCCCCC [SHAPE_invivo_SARS-CoV-2_Motif_557] | 0.76 | 0.62 | -0.187 | -0.213 |
| GGCCUCACGGCC [IAV_invivo_PB1_2_Motif_9+IAV_invivo_PB1_2_Motif_9] | 0.0835 | -0.332 | -0.354 | -0.914 |

| Sequence | pull-down binding Z-score [1] | pull-down binding Z-score [2] | pull-down binding Z-score [3] | pull-down binding Z-score [4] |
| --- | --- | --- | --- | --- |
| GGCCUGGGCCUGGGCCUGGGCCUGGGCCUGGGCCUG [r(GGCCUG)6] | 0.00804 | -0.184 | -0.435 | 0.12 |
| GGCCUUGAAGCC [SHAPE_invitro_SARS-CoV-2_Motif_466] | -0.406 | -0.703 | -0.216 | -0.459 |
| GGCGAAUCUGGCGCC [IAV_invivo_NP_5_Motif_7+IAV_invivo_NP_5_Motif_7] | 0.577 | 0.493 | -0.231 | 0.288 |
| GGCGAUAGUUGUAAUAACUAUAUGCU | -1.04 | -1.31 | -0.564 | -0.976 |
| GGCGAUUUUGUUAAAGCCACUUGCGAAUUUUGUGGCACUGAGAAUUUGACUAAAGAAGGUGCCACUACUUGUGGUUACUUACCCCAAAAUGCU | 0.452 | 0.66 | 0.278 | 0.59 |
| GGCGUAAGUCUGAUACUUACCUG [U1snRNP5ss-10] | 0.212 | 0.668 | 0.0886 | 1.08 |
| GGCGUCUCAAGGCACC [IAV_invivo_NP_5_Motif_2+IAV_invivo_NP_5_Motif_2] | 0.308 | 0.151 | -0.687 | -0.084 |
| GGCGUUGUCCUGCUGAAAUUGUUGACACUGUGAGUGCUUUGGUUUAUGAUAAUAAGCUUAAAGCACAUAAAGACAAAUCAGCUCAAUGCU | -0.58 | -0.324 | -0.302 | 0.182 |
| GGCUAUGGUUUCCAGAGCC [IAV_invivo_PB1_2_Motif_37+IAV_invivo_PB1_2_Motif_37] | 0.417 | 0.285 | -0.179 | -0.356 |
| GGCUAUGUAACACAUGGCU | -0.114 | -0.351 | -0.449 | -1.06 |
| GGCUCAUAGACUUCCUUAAGGAUGUAAUGGAGUC [IAV_invivo_PB1_2_Motif_10+IAV_invivo_PB1_2_Motif_10] | 0.164 | 0.795 | -0.15 | 1.62 |
| GGCUGGAUCGAGUGAGCAAGCAGCAGAGGCC [IAV_invivo_M1_M2_7_Motif_14+IAV_invivo_M1_M2_7_Motif_14] | 0.316 | 1.37 | 0.757 | 2.47 |
| GGCUGGUGGCACUACUGAAAUGCUAGCGAAAGCUUUGAGAAAAGUGCCAACAGAC | 0.234 | 0.418 | -0.33 | 0.4 |
| GGCUGUAGUUGUGAUCAACUCCGCGAACCCAUGCUUCAGUCAGCUGAUGCACAAUCGUUUUUAAACGGGUUUGCGGUGUAAGUGCAGCC [DMSMaPseq_invitro_SARS-CoV-2_Motif_241] | -0.355 | -0.133 | -0.0355 | 0.388 |
| GGCUUCAUCAAACAAUAUGGUGAUUGCC | -0.151 | -0.484 | -0.331 | -1.01 |
| GGCUUCAUUUAAUUAUUUGAAGUC | -0.867 | -1.24 | -0.711 | -1.75 |
| GGGAAAGAAGUCCU [IAV_invivo_HA_4_Motif_8+IAV_invivo_HA_4_Motif_8] | -0.398 | -0.705 | -0.278 | -0.872 |
| GGGAAGAACACC [IAV_invivo_M1_M2_7_Motif_3+IAV_invivo_M1_M2_7_Motif_3] | 1.13 | 0.899 | 5.36e-05 | -0.0552 |
| GGGAAGGCGAAAGACC [IAV_invivo_PA_3_Motif_21+IAV_invivo_PA_3_Motif_21] | 0.143 | 0.603 | 0.289 | 1.12 |
| GGGAAUAUAAUCUC [IAV_invivo_NA_6_Motif_2+IAV_invivo_NA_6_Motif_2] | 1.52 | 1.33 | 0.038 | -0.715 |
